Test results taken from patent publication US6716811B1, “Compounds having affinity for the granulocyte-colony stimulating factor receptor (G-CSFR) and associated uses” (Affymax, Inc., priority 2000, dated 2004).
Where a SMILES comes first, the peptide text is derived from it. Bridges are numbered along the chain shown (N, C = ends). Roman numbers before positions name the chains, in order.

How the values were obtained:
G-CSFR [1] = biological target: T1, G-CSFR (Homo sapiens, UniProt Q99062); assay: G-CSF competition binding assay (125I labeled G-CSF, immobilized G-CSFR in microtiter wells); parameters: made in house; conditions: reduction of bound 125I labeled G-CSF; overnight at 4° C.
T1 sequence (Q99062 25-836): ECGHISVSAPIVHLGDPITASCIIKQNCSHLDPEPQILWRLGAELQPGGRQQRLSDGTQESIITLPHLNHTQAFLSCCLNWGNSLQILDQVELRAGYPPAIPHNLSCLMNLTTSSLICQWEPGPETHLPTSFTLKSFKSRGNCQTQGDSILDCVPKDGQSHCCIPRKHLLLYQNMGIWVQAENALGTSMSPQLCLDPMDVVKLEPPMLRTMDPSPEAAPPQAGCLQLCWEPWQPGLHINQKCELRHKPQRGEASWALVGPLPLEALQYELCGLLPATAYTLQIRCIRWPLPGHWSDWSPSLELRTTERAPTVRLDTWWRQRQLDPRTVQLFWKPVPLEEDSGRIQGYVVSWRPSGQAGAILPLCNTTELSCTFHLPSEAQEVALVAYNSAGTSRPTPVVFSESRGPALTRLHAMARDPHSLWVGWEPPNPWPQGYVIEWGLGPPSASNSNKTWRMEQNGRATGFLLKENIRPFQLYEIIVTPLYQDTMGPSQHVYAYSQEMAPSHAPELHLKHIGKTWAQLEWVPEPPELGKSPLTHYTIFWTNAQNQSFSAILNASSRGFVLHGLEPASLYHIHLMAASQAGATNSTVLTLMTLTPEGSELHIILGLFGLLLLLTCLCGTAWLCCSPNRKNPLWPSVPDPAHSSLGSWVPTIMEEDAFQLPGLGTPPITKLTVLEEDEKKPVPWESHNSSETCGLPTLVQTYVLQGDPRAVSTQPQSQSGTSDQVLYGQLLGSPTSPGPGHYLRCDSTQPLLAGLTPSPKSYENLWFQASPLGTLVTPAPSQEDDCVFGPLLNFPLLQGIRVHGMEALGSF
Experimental: Determination of competitive binding was also carried out for a number of peptides. Briefly stated, G-CSFR was purified using standard techniques. The receptor was then immobilized in microtiter plate wells that were coated with acid-treated antibody (A b179) specific for a site on G-CSFR not involved with G-CSF binding. Separately, ^125I was coupled to the natural ligand G-CSF using techniques well known in the art. Test peptides were added to receptor-coated wells and allowed to bind to immobilized receptor for approximately 30 minutes. ^125 labeled G-CSF was then introduced to the wells and incubated overnight at 4°C. Unbound ^125I labeled G-CSF was removed by washing the plate several times followed by measuring the amount of radioactivity that remained in each well using conventional techniques. […] Alternatively, if reduced amounts or no ^125I labeled G-CSF was detected, the peptide did compete.

G-CSFR [2] = biological target: T2, G-CSFR (Homo sapiens, UniProt Q99062); assay: Specific binding of peptides to G-CSFR; conditions: total minus non-specific binding; unlabeled ligand typically G-CSF variant CS17
T2 construct: incubation with soluble G-CSFR harvest; made in house
T2 sequence (Q99062 25-627): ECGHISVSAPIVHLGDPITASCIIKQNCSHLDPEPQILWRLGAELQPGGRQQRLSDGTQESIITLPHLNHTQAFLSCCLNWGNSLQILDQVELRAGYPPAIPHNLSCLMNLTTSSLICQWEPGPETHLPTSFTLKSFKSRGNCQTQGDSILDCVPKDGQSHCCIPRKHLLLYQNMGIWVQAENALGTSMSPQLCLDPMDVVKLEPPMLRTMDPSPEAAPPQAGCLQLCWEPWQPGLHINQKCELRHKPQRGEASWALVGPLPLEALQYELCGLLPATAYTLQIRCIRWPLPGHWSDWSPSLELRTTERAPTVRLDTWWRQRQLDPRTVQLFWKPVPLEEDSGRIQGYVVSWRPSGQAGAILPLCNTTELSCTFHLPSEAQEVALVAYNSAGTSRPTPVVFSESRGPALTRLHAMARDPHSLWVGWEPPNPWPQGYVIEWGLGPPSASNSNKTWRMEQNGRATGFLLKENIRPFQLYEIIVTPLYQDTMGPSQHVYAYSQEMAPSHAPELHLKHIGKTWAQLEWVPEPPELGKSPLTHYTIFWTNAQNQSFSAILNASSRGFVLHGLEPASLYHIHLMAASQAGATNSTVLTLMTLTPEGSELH
Text: Specific binding is binding of a ligand to a specific receptor, as opposed to non-specific binding that is mediated by non-specific interactions. Specific binding may be measured by subtraction of the non-specific binding (measured in the presence of saturating concentrations of unlabeled ligand) from the total binding (measured in the absence of saturating amounts of ligand). Typically, the unlabeled ligand used was a variant of G-CSF in which the cysteine normally found at position 17 was converted to serine (CS17).

G-CSFR [3] = biological target: T2, G-CSFR; assay: G-CSF radioligand binding assay (SPA beads, 125I labeled G-CSF); conditions: reduction by 50% of 125I labeled G-CSF bound to immobilized G-CSFR; overnight at 4° C.
Experimental: Streptavidin-coated scintillation proximity assay (SPA) beads (Amersham) were mixed with biotinylated anti-receptor immobilizing antibody (Ab179) followed by incubation with soluble G-CSFR harvest. Receptor-coated SPA beads were washed twice in PBS/0.1% BSA and distributed to wells of a white polystyrene 96-well microtiter plate (Packard). Serial dilutions of peptide or peptide mimetic were mixed with a constant amount of ^125I labeled G-CSF (10^5 cpm; 1290 Ci/mmol) in PBS/0.1% BSA, added to wells containing receptor-coated SPA beads, and incubated overnight at 4° C. The binding of radiolabeled G-CSF to the receptor-coated SPA bead brings the isotope in close proximity to the scintillant, which allows the emitted radiation to stimulate the scintillant to emit light. […] The amount of ^125I labeled G-CSF that was bound at equilibrium was measured by counting the plate in a TopCount (Wallac) microtiter plate luminometer. […] One can determine the concentration at which the peptide or peptide mimetic will reduce by 50% (IC50) the amount of ^125I labeled G-CSF bound to immobilized G-CSFR.

Competitive Binding? (G-CSFR [1])	Specific Binding? (G-CSFR [2])	IC50 (G-CSFR [3]) [µM]	Compound
–	–	0.5 to 200	H-EQSNSGWVWVGGGGC-NH2 [Example 45, NH2-EQSNSGWVWVGGGGC-CONH2]
No	No	–	CHANPVWGEC [Example 9]
–	–	> 200	H-QSNSEREWFCG-NH2 [Example 40, NH2-QSNSEREWFCG-CONH2]
Yes	Yes	–	CPDWYQSYMC [Example 12]
–	–	> 200	N=C(N)NCCC[C@H](NC(=O)[C@H](CCC(=O)O)NC(=O)[C@H](CO)NC(=O)[C@H](CC(N)=O)NC(=O)[C@H](CO)NC(=O)[C@@H](N)CCC(N)=O)C(=O)N[C@@H](CCC(=O)O)C(=O)N[C@@H](Cc1c[nH]c2ccccc12)C(=O)N[C@@H](Cc1ccccc1)C(=O)N[C@@H](CSSC[C@H](NC(=O)[C@H](Cc1ccccc1)NC(=O)[C@H](Cc1c[nH]c2ccccc12)NC(=O)[C@H](CCC(=O)O)NC(=O)[C@H](CCCNC(=N)N)NC(=O)[C@H](CCC(=O)O)NC(=O)[C@H](CO)NC(=O)[C@H](CC(N)=O)NC(=O)[C@H](CO)NC(=O)[C@@H](N)CCC(N)=O)C(N)=O)C(N)=O [Example 39] (I: H-QSNSEREWFC-NH2 / II: H-QSNSEREWFC-NH2; disulfide I:10-II:10)
No	No	–	CFWSDWGQTC [Example 11]
Yes	Yes	–	CPHWTSYYMC [Example 13]
Yes	Yes	–	CADEVMHFCC [Example 3]
–	–	> 200	H-QSNSEREWFC-NH2 [Example 38, NH2-QSNSEREWFC-CONH2]
–	–	> 200	H-STAERLWFCG-NH2 [Example 36, NH2-STAERLWFCG-CONH2]
–	–	0.5 to 200	H-EQSNSGWVWV-NH2 [Example 35, NH2-EQSNSGWVWV-CONH2]
No	Yes	–	CVPWMFYDLC [Example 6]
Yes	Yes	–	CSFVQLNSIC [Example 5]
–	–	> 200	N=C(N)NCCC[C@H](NC(=O)[C@H](CCC(=O)O)NC(=O)[C@H](CO)NC(=O)[C@H](CC(N)=O)NC(=O)[C@H](CO)NC(=O)[C@@H](N)CCC(N)=O)C(=O)N[C@@H](CCC(=O)O)C(=O)N[C@@H](Cc1c[nH]c2ccccc12)C(=O)N[C@@H](Cc1ccccc1)C(=O)N[C@@H](CSSC[C@H](NC(=O)[C@H](Cc1ccccc1)NC(=O)[C@H](Cc1c[nH]c2ccccc12)NC(=O)[C@H](CCC(=O)O)NC(=O)[C@H](CCCNC(=N)N)NC(=O)[C@H](CCC(=O)O)NC(=O)[C@H](CO)NC(=O)[C@H](CC(N)=O)NC(=O)[C@H](CO)NC(=O)[C@@H](N)CCC(N)=O)C(=O)NCC(N)=O)C(=O)NCC(N)=O [Example 41] (I: H-QSNSEREWFCG-NH2 / II: H-QSNSEREWFCG-NH2; disulfide I:10-II:10)
–	–	> 200	Ac-NSGWVW-NH2 [Example 43, Ac-NSGWVW-CONH2]
Yes	Yes	–	CAGEVMHMCC [Example 1]
–	–	0.5 to 200	CC(C)[C@H](NC(=O)[C@H](Cc1c[nH]c2ccccc12)NC(=O)[C@@H](NC(=O)[C@H](Cc1c[nH]c2ccccc12)NC(=O)CNC(=O)[C@H](CO)NC(=O)[C@H](CC(N)=O)NC(=O)[C@H](CO)NC(=O)[C@H](CCC(N)=O)NC(=O)[C@@H](N)CCC(=O)O)C(C)C)C(=O)NCC(=O)NCC(=O)NCC(=O)NCC(=O)N[C@@H](CSSC[C@H](NC(=O)CNC(=O)CNC(=O)CNC(=O)CNC(=O)[C@@H](NC(=O)[C@H](Cc1c[nH]c2ccccc12)NC(=O)[C@@H](NC(=O)[C@H](Cc1c[nH]c2ccccc12)NC(=O)CNC(=O)[C@H](CO)NC(=O)[C@H](CC(N)=O)NC(=O)[C@H](CO)NC(=O)[C@H](CCC(N)=O)NC(=O)[C@@H](N)CCC(=O)O)C(C)C)C(C)C)C(N)=O)C(N)=O [Example 46] (I: H-EQSNSGWVWVGGGGC-NH2 / II: H-EQSNSGWVWVGGGGC-NH2; disulfide I:15-II:15)
Yes	Yes	–	CNREIEAMCC [Example 2]
Yes	Yes	–	CDVWQLFDRC [Example 4]
Yes	Yes	–	CACMLRVVHC [Example 14]
–	–	0.5 to 200	CC(C)C[C@H](NC(=O)[C@H](CCCNC(=N)N)NC(=O)[C@H](CCC(=O)O)NC(=O)[C@H](C)NC(=O)[C@@H](NC(=O)[C@@H](N)CO)[C@@H](C)O)C(=O)N[C@@H](Cc1c[nH]c2ccccc12)C(=O)N[C@@H](Cc1ccccc1)C(=O)N[C@@H](CSSC[C@H](NC(=O)[C@H](Cc1ccccc1)NC(=O)[C@H](Cc1c[nH]c2ccccc12)NC(=O)[C@H](CC(C)C)NC(=O)[C@H](CCCNC(=N)N)NC(=O)[C@H](CCC(=O)O)NC(=O)[C@H](C)NC(=O)[C@@H](NC(=O)[C@@H](N)CO)[C@@H](C)O)C(=O)NCC(N)=O)C(=O)NCC(N)=O [Example 37] (I: H-STAERLWFCG-NH2 / II: H-STAERLWFCG-NH2; disulfide I:9-II:9)
No	Yes	–	CDPWMFYDLC [Example 7]
–	–	> 200	Ac-ESGWVW-NH2 [Example 42, Ac-ESGWVW-CONH2]
No	No	–	CQRAGYMLAC [Example 8]
–	–	> 200	H-KSTGGLTAERDAEKRRWLLTHGGE-OH [Example 66]

Compound	Competitive Binding? (G-CSFR [1])	Specific Binding? (G-CSFR [2])	IC50 (G-CSFR [3]) [µM]
CETLCGACFC [Example 15]	No	No	–
